Consider seven molecules from patent publication US20200138960A1 (KUNSHAN XINYUNDA BIOTECH, published 2020).

Residue numbers refer to the chain shown, from its start.

The labels stand for the following.
B1: N-loop (designed binder)
chain: MSSQIRQNYHQDSEAAVNRQINLYLQASYTYLSLGFYFDRDDVALEGVSHFFRELAEEKREGYERLLKMQNQRGGRIFLQDIKKPDCDEWGKTPDAMKAAMALEKKLNQALLDLHKLATDKNDPHLCDFLETHFLDEEVKLIKKMGDHLTNLHRLGGPEAGLGEYLFERLTLKHD
notes: expressed in E. coli from PET22b; Purity of target protein 77.1%; also called N-loop modified protein
B2: N terminal (designed binder)
chain: B1 chain with D86A, C87E
B3: C-loop (designed binder)
chain: MSSQIRQNYSTDVEAAVNSLVNLYLQASYTYLSLGFYFDRDDVALEGVSHFFRELAEEKREGYERLLKMQNQRGGRALFQDIKKPDCDEWESGLNAMECALHLEKKLNQALLDLHALGSARTDPHLCDFLETHFLDEEVKLIKKMGDHLTNLRKMGAPEAGLGEYLFERLTLKHD
B4: C terminal (designed binder)
chain: B3 chain with D86A, C87E
B5: NC-loop (designed binder)
chain: MSSQIRQNYHQDSEAAVNRQINLYLQASYTYLSLGFYFDRDDVALEGVSHFFRELAEEKREGYERLLKMQNQRGGRIFLQDIKKPDCDEWESGLNAMECALHLEKKLNQALLDLHKLATDKNDPHLCDFLETHFLDEEVKLIKKMGDHLTNLRKMGAPEAGLGEYLFERLTLKHD
B6: NC fusion (designed binder)
chain: B5 chain with D86A, C87E
B7: chimeric human H-ferritin (designed binder)
chain: MTSQVRQNYHQDSEAAINRQINLELYASYVYLSMSYYFDRDDVALEGVSHFFRELAEEKREGYERLLKMQNQRGGRIFLQDIKKPDCDDWESGLNAMECALHLEKNVNQSLLELHKLATDKNDPHLCDFLETHFLDEEVKLIKKMGDHVTNLRKMGAPESGLAEYLFERLTLKHD
notes: FITC-labelled in the cell assays; also called chimeric human H-ferritins

One test deals with T1, TfR1 (human, Sino Biological Inc.) (human, UniProt P02786 89-760).
T1 construct: Bought protein; the catalogue number printed for it (11020-MM02) is the same as that printed for the anti-TfR1 primary antibody, so the construct cannot be told; also called TfFR1; receptor TfR1
T1 sequence (P02786 89-760 limits assumed): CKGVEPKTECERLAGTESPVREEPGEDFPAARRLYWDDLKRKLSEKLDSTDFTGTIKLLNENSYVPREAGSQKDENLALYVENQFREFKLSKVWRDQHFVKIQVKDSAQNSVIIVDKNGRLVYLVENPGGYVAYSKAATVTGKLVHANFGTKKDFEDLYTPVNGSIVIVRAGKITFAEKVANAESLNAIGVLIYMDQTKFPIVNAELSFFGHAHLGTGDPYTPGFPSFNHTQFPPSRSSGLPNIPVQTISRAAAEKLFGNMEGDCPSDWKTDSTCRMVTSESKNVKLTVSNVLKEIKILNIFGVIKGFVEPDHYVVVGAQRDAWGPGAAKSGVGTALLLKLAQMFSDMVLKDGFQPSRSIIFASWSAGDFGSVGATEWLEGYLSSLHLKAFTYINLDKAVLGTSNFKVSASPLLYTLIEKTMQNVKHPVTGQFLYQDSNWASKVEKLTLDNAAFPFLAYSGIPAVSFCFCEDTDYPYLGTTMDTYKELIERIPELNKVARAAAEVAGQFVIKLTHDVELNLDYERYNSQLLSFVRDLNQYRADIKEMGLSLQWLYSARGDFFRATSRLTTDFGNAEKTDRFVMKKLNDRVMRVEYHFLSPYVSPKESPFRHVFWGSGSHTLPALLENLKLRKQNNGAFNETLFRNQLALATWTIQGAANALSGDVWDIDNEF
In words: ELISA value converted by purity of target protein.
On to B1, for which the “Converted ELISA value” came out at 1.52.
As for B2, the “Converted ELISA value” stood at 1.3.
Take B3: the “Converted ELISA value” came out at 0.71.
Turning to B4, the “Converted ELISA value” came to 0.17.
With B5, the “Converted ELISA value” was 2.02.
On to B6, for which the “Converted ELISA value” stood at 1.14.

In the next test the target is T1, TfR1 (human, Sino Biological Inc.). Nature of the test: ELISA, protein coated at 20 ug/mL, 2 ug/mL TfR1, anti-TfR1 detection.
The molecule B1 returned an ELISA value of 1.17 OD630.
Still for that read-out and setting: to B2 belongs 0.88 OD630; to B3, 0.31 OD630.
B4 returned an ELISA value of 0.1 OD630.
The same measure, in the same setting: to B5 belongs 1.23 OD630; to B6, 1.03 OD630.

Another test deals with T2, human Transferrin Receptor 1 (TfR1) on cells (human, UniProt P02786 1-760).
T2 construct: whole, on cells; Endogenous receptor on human cell lines; also called receptor TfR1 on hCMEC/D3 cells; TfR1 on U87-MG cells
T2 sequence (P02786 whole entry): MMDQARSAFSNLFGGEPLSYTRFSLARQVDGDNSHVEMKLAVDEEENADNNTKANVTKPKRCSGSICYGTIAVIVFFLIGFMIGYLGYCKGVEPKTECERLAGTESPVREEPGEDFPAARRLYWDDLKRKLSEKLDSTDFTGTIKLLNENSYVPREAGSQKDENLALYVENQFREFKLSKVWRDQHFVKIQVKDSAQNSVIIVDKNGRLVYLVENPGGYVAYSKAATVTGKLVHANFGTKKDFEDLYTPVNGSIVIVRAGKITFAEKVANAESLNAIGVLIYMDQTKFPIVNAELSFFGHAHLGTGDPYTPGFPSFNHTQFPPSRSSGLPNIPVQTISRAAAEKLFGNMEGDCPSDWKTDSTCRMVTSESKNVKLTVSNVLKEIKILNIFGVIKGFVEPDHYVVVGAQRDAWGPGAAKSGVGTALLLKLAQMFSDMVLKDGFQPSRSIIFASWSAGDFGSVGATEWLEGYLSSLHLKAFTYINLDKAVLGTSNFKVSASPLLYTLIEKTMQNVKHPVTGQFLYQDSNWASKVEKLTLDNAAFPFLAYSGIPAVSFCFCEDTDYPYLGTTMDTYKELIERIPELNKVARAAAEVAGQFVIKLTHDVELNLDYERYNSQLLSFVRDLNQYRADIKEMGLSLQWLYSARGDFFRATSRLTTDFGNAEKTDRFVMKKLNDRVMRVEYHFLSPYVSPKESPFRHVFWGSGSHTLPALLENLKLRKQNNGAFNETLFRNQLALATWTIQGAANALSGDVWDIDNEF
In words: flow cytometry on hCMEC/D3 cells according to Example 1b.
As to B7, the binding result is listed as “binds”.
